Laboratory results as given in patent publication US8779109B2, “Growth hormones with prolonged in-vivo efficacy” (Novo Nordisk Health Care AG, priority 2010, dated 2014).
Where two headings read alike, the source gives them in different places.

What was measured:
[1] = system: plasma IGF-1; test: In vivo dose-response study in hypophysectomised Sprague Dawley rats (plasma IGF-1); conditions: Table 5
Method: The in vivo dose-response relationship is studied in hypophysectomised male Sprague Dawley rats. The hypophysectomised rat is a well known and recognised animal model of growth hormone deficiency, where no production of growth hormone occurs after the surgical removal of the pituitary gland. This also leads to low circulating levels of insulin-like growth factor-1 (IGF-1) another important clinical feature of growth hormone deficiency in humans.
The hypophysectomy is performed on 4 week old male rats weighing 90-100 g. The animals entering the study 3-4 weeks after the surgery weighing 100-110 g. Animals with a body weight gain of more than 10% during the 3-4 weeks after surgery are not allowed to enter the study.
Dose response studies are performed using five dose levels of compound 45.4 from 1-150 nmol/rat.

[2] = molecular target: T1, human growth hormone receptor (BAF-3 GHR cells) (Homo sapiens, UniProt P10912); test: BAF-3 GHR assay to determine growth hormone activity; type: cell-based, mouse; conditions: Table 5; relative to hGH = 1.0 (def)
T1 construct: expressed in transfected cells; host or cells: BAF-3 (murine pro-B lymphoid cell line)
T1 sequence (P10912 19-638): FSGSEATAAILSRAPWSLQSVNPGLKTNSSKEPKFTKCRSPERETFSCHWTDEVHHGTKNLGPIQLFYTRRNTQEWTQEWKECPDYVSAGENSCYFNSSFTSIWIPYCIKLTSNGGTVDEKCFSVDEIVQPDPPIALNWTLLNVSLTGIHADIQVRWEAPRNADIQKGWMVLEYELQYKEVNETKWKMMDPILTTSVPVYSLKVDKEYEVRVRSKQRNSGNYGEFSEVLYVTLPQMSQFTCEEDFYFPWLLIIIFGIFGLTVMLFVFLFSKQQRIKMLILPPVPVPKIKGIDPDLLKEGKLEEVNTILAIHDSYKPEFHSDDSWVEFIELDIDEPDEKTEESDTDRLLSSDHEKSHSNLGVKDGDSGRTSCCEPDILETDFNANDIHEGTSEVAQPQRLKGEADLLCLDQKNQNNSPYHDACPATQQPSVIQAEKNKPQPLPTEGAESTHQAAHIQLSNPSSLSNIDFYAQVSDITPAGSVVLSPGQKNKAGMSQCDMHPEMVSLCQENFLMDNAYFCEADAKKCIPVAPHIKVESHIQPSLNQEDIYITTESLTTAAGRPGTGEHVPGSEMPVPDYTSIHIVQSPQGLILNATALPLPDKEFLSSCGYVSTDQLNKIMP
Method: This clone can be used to evaluate the effect of different growth hormone samples on the survival of the BAF-3 GHR.
The BAF-3 GHR cells are grown in starvation medium (culture medium without growth hormone) for 24 hrs at 37° C., 5% CO2.
The cells are washed and re-suspended in starvation medium and seeded in plates. 10 μL of growth hormone compound or human growth hormone in different concentrations or control is added to the cells, and the plates are incubated for 68 hrs at 37° C., 5% CO2.
AlamarBlue® is added to each well and the cells are then incubated for another 4 hrs. The AlamarBlue® is a redox indicator, and is reduced by reactions innate to cellular metabolism and, therefore, provides an indirect measure of viable cell number.
Finally, the metabolic activity of the cells is measure in a fluorescence plate reader. The absorbance in the samples is expressed in % of cells not stimulated with growth hormone compound or control and from the concentration-response curves the activity (amount of a compound that stimulates the cells with 50%) can be calculated.

[3] = in vivo, iv
Method: (§4) The pharmacokinetic of the compounds of the examples is investigated in male Sprague Dawley rats after intravenous (i.v.) and subcutaneous (s.c.) single dose administration.
(§5) Test compounds are diluted to a final concentration of 1 mg/mL in a dilution buffer consisting of: Glycine 20 mg/mL, mannitol 2 mg/mL, NaHCO3 2.5 mg/mL, pH adjusted to 8.2.
(§6) The test compounds are studied in male Sprague Dawley rats weighing 250 g. The test compounds are administered as a single injection either i.v. in the tail vein or s.c. in the neck with a 25 G needle at a dose of 60 nmol/kg body weight.
(§7) At each sampling time 0.25 ml blood is drawn from the tail vein using a 25 G needle. The blood is sampled into a EDTA coated test tube and stored on ice until centrifugation at 1200×G for 10 min at 4° C. Plasma is transferred to a Micronic tube and stored at −20° C. until analysis.
(§8) A non-compartmental pharmacokinetic analysis is performed on mean concentration-time profiles of each test compound using WinNonlin Professional (Pharsight Inc., Mountain View, Calif., USA). The pharmacokinetic parameter estimates of terminal half-life (t1/2) and mean residence time (MRT) are calculated.

[4] = molecular target: T2, elastase (Sus scrofa, UniProt P00772); test: Protease stability, incubation with elastase; type: in vitro ADME, porcine; conditions: incubation for 4 hours with elastase
T2 construct: purchased Sigma; host or cells: porcine pancreas
Description: (§1) The compound of interest is digested by a relevant protease (Trypsin, Chymotrypsin, Pepsin, Elastase, Factor VIIa, Factor Xa, Proteinase K, Carboxy peptidase, DPPIV, Neutral Endopeptidase, Granzyme B, Proline-endopeptidase, Staphylococcal peptidase I, Thermolysin, Thrombin, Arg-C proteinase, Asp-N endopeptidase, Caspase 1-10, Clostripain, Enterokinase, Glutamyl endopeptidase, Granzyme B, LysC, LysN, Proline-endopeptidase and Staphylococcal peptidase I or tissue extracts.) in an appropriate buffer (e.g. PBS or ammonium bicarbonate) at 37° C. for up till 24 hrs. Proteolytic degradation is assessed by a HPLC assay.
(§2) 100 μL of test compound solution at 1 mg/mL in ammonium bicarbonate buffer is degraded by enzyme for up till 24 hrs at 37° C. […] These diluted samples are analysed by reversed phase HPLC to estimate the degree of proteolytic digestion.
(§3) 10 μL of the above solution is injected on a reversed phase Vydac C4 2×150 mm column eluted with a linear gradient from 0.1% TFA in water to 100% acetonitrile containing 0.1% TFA over a period of 30 min at a flow rate of 0.2 ml/min. […] Percentage (%) intact compound at time point t=T is calculated from the peak area at time point t=T (AT) and the peak area at t=0 (A0) as (AT/A0)×100%. […] Half life (T1/2) is calculated as one phase decay also by GraphPad Prism software. […]

[5] = molecular target: T3, chymotrypsin (Bos taurus, UniProt P00766); test: Protease stability, incubation with chymotrypsin; type: in vitro ADME; conditions: incubation for 4 hours with chymotrypsin
T3 construct: purchased Roche
Description: as §1, §2, §3

[6] = Pharmacokinetics in Sprague Dawley rats after i.v. and s.c. single dose
Method: as §4, §5, §6, §7, §8

T2 sequence (P00772 27-266): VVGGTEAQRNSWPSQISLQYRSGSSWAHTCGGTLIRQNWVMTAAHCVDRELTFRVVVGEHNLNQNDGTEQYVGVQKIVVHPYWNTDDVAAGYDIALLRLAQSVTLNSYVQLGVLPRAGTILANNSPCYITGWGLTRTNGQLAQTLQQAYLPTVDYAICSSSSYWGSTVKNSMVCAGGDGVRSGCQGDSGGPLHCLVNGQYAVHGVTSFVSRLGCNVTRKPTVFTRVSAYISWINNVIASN

Row | Substance | Duration of IGF-1 increase [1] [h] | In vitro potency [2] | T1/2 (i.v. Rat) [3] [h] | MRT ([3]; rat, 60 nmol/kg) [h] | T1/2 ([3]; rat, 60 nmol/kg) [h] | Elastase (% intact GH compound) [4] [%] | Chymotrypsin (% intact GH compound) [5] [%] | T1/2 (i.v. Rat) ([6]; Table 4) [h] | T1/2 (i.v. Rat) ([6]; Table 5) [h]
1 | 2-(C20diacid-Trx-γGlu-OEG-OEG-δLys)-carbonylmethylene-S^101-hGH[L101C] [Compound 44.1] | >48 | 4.7 | 5.6 | 7.2 | 5.6 |  |  |  | 
2 | hGH: wild-type human growth hormone, 191 amino acid residue protein (SEQ ID NO: 1) |  |  |  |  |  | 25 | 40 | 0.23 | 0.23
